Positions count from the first letter of the chain named.
Experiments:
LRP1 CR3-5 [1] = target: T1, LRP1 CR3-5 (human); assay: solid-phase binding assay, CR protein coated on plate, anti-RAP detection
T1 construct: range 852-973; also called L1 CR3-5

LRP2 CR89 [2] = target: T2, LRP2 CR89 (human, UniProt P98164 1025-1102); assay: as above
T2 construct: domain: CR89; also called YVWR; L2 CR89; not shown: N-terminal hexahistidine and S-peptide tags of pET30(+)a

VLDLR CR6-8 = target: T3, VLDLR CR6-8 (human, UniProt P98155 235-358); assay: as above
T3 construct: range 235-358; also called V CR6-8; not shown: N-terminal hexahistidine and S-peptide tags of pET30(+)a

LRP2 CR89 R1088D [3] = target: T4, LRP2 CR89 R1088D (human, UniProt P98164 1022-1105); assay: solid-phase assay; OD at the highest ligand concentration as percent of the highest OD of all ligands
T4 construct: also called YVWD
Protocol: (§1) Solid phase binding assays-Purified, refolded CR protein (1 μg) was bound to Nunc Maxisorp™ 96-well plates in TBS pH 8 supplemented with 5 mM CaCl₂ (TBSC) overnight at 4° C. Wells were washed with TBSC and then blocked with TBSC containing 2% bovine serum albumin (BSA). […] Control wells contained no added ligand. As an additional control, to determine whether the absence of calcium affected binding, 10 mM EGTA was included in the incubation medium for some samples. […] Excess primary antibody was removed and wells washed before incubation with the secondary antibody, HRP-conjugated goat anti rabbit IgG (Bio-Rad). After washing, TMB substrate solutions (Bio-Rad) were added to detect HRP. Color development was stopped with 1N HCl. Absorption at 450 nm was measured with a microplate spectrophotometer (Molecular Devices). Data were plotted and Kd values derived by non-linear regression with the assumption of single-site binding (GraphPad Prism).
(§2) To test this idea, mutant LRP2 CR89 were prepared in which the native, non-canonical residues at these positions were sequentially substituted with the non-native, canonical residues. As defined above, the A, C, A′, C′ string for LRP2 CR89 is YVWR. Mutants included LRP2 CR89 Y1042W (WVWR), LRP2 CR89 V1047D (YDWR), LRP2 CR89 R1088D (YVWD), LRP2 CR89 V1047D R1088D (YDWD), LRP2 CR89 Y1042W V1047D R1088D (WDWD), LRP2 CR89 Y1042W V1047D (WDWR), LRP2 CR89 Y1042W R1088D (WVWD).

LRP2 CR89 V1047D R1088D = target: T5, LRP2 CR89 V1047D R1088D (human, UniProt P98164 1022-1105); assay: as above
T5 construct: also called YDWD
T5 sequence: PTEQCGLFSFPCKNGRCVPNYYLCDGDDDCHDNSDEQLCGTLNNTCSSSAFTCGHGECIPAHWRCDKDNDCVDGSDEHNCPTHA
Protocol: as §1, §2

LRP2 CR89 Y1042W V1047D = target: T6, LRP2 CR89 Y1042W V1047D (human, UniProt P98164 1022-1105); assay: as above
T6 construct: also called WDWR
T6 chain: T5 sequence with Y22W, D68R
Protocol: as §1, §2

[4] = target: T7, LRP2 CR89 Y1042W V1047D R1088D (human, UniProt P98164 1022-1105); assay: as above
T7 construct: also called WDWD
T7 chain: T5 sequence with Y22W
Protocol: as §1, §2

LRP2 CR89 [5] = target: T2, LRP2 CR89; assay: as above
Protocol: as §1, §2

LRP2 CR89 V1047D = target: T8, LRP2 CR89 V1047D (human, UniProt P98164 1022-1105); assay: as above
T8 construct: also called YDWR
T8 sequence: T5 sequence with D68R
Protocol: as §1, §2

LRP2 CR89 Y1042W R1088D = target: T9, LRP2 CR89 Y1042W R1088D (human, UniProt P98164 1022-1105); assay: as above
T9 construct: also called WVWD
T9 chain: T5 sequence with Y22W, D27V
Protocol: as §1, §2

LRP1 CR3-5 [6] = target: T1, LRP1 CR3-5; assay: solid-phase assay on coated CR protein, single-site non-linear fit
Protocol: Data were plotted and fitted by non-linear regression with the assumption of a single binding site (GraphPad Prism). Kd values with standard deviations were derived from the regression analysis.
as §1

LRP1 CR3-5 [7] = target: T1, LRP1 CR3-5; assay: apparent Kd of the variant for the CR pair used in selection; no unit printed in Table 4, nM per Table 2 and paragraph 292
LRP2 CR2728 = target: T10, LRP2 CR2728 (human, UniProt P98164 3552-3631); assay: solid-phase assay on coated CR protein, each ligand at 80 nM, blank-corrected absorbance
T10 construct: domain: CR2728; Its cloning is not described in the methods; not shown: N-terminal hexahistidine and S-peptide tags of pET30(+)a
T10 sequence (looked up): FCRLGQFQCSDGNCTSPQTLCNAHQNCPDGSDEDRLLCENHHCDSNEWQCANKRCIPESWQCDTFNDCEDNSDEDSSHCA
Protocol: (§3) Samples were tested twice, in duplicate, and values combined. Means and standard deviations were then calculated. Blank values obtained from wells incubated in the absence of ligand were used to correct absorbance data.
as §1

LRP2 CR3031 = target: T11, LRP2 CR3031 (human, UniProt P98164 3677-3755); assay: as above
T11 construct: domain: CR3031; Its cloning is not described in the methods; not shown: N-terminal hexahistidine and S-peptide tags of pET30(+)a
Protocol: as §3, §1

MAT CR12 = target: T12, MAT CR12 (human, UniProt Q9Y5Y6 452-524); assay: as above
T12 construct: also called ST14 CR12; matriptase CR12
T12 sequence: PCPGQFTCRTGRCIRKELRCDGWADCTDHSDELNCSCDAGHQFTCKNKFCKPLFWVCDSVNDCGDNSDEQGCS
Protocol: as §3, §1

LRP2 CR89 R1088D [8] = target: T4, LRP2 CR89 R1088D; assay: solid-phase assay on coated CR protein, anti-RAP detection, A450
Protocol: as §1, §2

LRP1 CR3-5 [9] = target: T1, LRP1 CR3-5; assay: solid-phase assay; OD at the highest ligand concentration as percent of the highest OD of all ligands
Protocol: as §1

LRP2 CR89 [10] = target: T2, LRP2 CR89; assay: as above; remark: listed apart in the source
Protocol: as §1

T2 sequence (P98164 1025-1102): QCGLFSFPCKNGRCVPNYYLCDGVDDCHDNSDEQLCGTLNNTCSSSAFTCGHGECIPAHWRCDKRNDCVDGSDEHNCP
T1 sequence (Q07954 852-973): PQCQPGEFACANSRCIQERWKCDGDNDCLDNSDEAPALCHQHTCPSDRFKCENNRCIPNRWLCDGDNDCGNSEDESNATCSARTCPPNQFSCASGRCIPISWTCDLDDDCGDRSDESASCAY
T11 sequence (P98164 3677-3755): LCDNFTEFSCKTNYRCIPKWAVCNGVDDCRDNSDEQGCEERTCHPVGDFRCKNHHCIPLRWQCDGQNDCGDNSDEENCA

B1: RAP d3 (wild-type domain 3 of human RAP, amino acids 201-319 of mature RAP) (ligand)
chain: LDRLRRVSHQGYSTEAEFEEPRVIDLWDLEQSANLTDKELEAFREELKHFEAKIEKHNHYQKQLEIAHEKLRHAESVGDGERVSRSREKHALLEGRTKELGYTVKKHLQDLSGRISRAR
notes: Expressed in E. coli from pET30(+)a, Ni-NTA purified; also called wild-type RAP d3; recombinant RAP d3; not shown: N-terminal hexahistidine and S-peptide tags of pET30(+)a
LRP1 CR3-5 [1]
  Kd: 11 nM
LRP2 CR89 [2]
  Kd: > 300 nM
VLDLR CR6-8
  Kd: > 300 nM
LRP2 CR89 R1088D [3]
  % max bind: 7%
LRP2 CR89 V1047D R1088D
  % max bind: 6%
LRP2 CR89 Y1042W V1047D
  % max bind: 11%
[4]
  % max bind: 15%
LRP2 CR89 [5]
  % max bind: 7%
LRP2 CR89 V1047D
  % max bind: 6%
LRP2 CR89 Y1042W R1088D
  % max bind: 16%
LRP1 CR3-5 [6]
  Kd: 16 nM
LRP1 CR3-5 [7]
  Kd: 16 nM
LRP2 CR2728
  binding result: no binding (tested: 80 nM)
LRP2 CR3031
  binding result: no binding (tested: 80 nM)
MAT CR12
  binding result: no binding (tested: 80 nM)
LRP2 CR89 R1088D [8]
  binding result: no binding (tested: 100 nM)
LRP1 CR3-5 [9]
  % max: 76%
LRP2 CR89 [10]
  % max: 5%
